Experimental data reported in article PMC10397247.

What was measured:
Test in all cases: two-hybrid library CCmax;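 further: natural log of median RNA to DNA barcode read ratio; higher means stronger binding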
4H32-AA = molecular target: T1, 4H32-AA; conditions: mean of both orientations
T1 chain: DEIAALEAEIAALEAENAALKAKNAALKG

4H2907-AA = molecular target: T2, 4H2907-AA; conditions: mean of both orientations
T2 chain: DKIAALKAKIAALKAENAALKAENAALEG

4H1874-AA = molecular target: T3, 4H1874-AA; conditions: mean of both orientations
T3 chain: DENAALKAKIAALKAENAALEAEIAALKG

4H3413-AA = molecular target: T4, 4H3413-AA; conditions: mean of both orientations
T4 chain: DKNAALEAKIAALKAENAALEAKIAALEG

4H340-AA = molecular target: T5, 4H340-AA; conditions: mean of both orientations
T5 chain: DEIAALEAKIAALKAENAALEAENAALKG

4H2648-AA = molecular target: T6, 4H2648-AA; conditions: mean of both orientations
T6 chain: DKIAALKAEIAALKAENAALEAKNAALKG

4H3162-AA = molecular target: T7, 4H3162-AA; conditions: mean of both orientations
T7 chain: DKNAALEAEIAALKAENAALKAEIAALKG

4H3865-AA = molecular target: T8, 4H3865-AA; conditions: mean of both orientations
T8 chain: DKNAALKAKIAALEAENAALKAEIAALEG

4H3378-AA = molecular target: T9, 4H3378-AA; conditions: mean of both orientations
T9 chain: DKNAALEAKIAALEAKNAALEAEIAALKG

4H3588-AA = molecular target: T10, 4H3588-AA; conditions: mean of both orientations
T10 chain: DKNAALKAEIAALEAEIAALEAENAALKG

4H3631-AA = molecular target: T11, 4H3631-AA; conditions: mean of both orientations
T11 chain: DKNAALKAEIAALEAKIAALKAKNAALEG

4H982-AA = molecular target: T12, 4H982-AA; conditions: mean of both orientations
T12 chain: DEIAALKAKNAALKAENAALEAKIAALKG

4H2611-AA = molecular target: T13, 4H2611-AA; conditions: mean of both orientations
T13 chain: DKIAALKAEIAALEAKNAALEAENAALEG

4H3133-AA = molecular target: T14, 4H3133-AA; conditions: mean of both orientations
T14 chain: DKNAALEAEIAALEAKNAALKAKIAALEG

4H3718-AA = molecular target: T15, 4H3718-AA
T15 chain: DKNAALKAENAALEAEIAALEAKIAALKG

4H1594-AA = molecular target: T16, 4H1594-AA
T16 chain: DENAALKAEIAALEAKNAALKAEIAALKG

4H3697-AA = molecular target: T17, 4H3697-AA; conditions: mean of both orientations
T17 chain: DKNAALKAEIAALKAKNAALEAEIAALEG

4H2198-AA = molecular target: T18, 4H2198-AA; conditions: mean of both orientations
T18 chain: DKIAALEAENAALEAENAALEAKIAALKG

4H3056-AA = molecular target: T19, 4H3056-AA; conditions: mean of both orientations
T19 chain: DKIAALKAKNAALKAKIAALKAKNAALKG

4H697-AA = molecular target: T20, 4H697-AA; conditions: mean of both orientations
T20 chain: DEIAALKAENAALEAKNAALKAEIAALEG

4H384-AA = molecular target: T21, 4H384-AA; conditions: mean of both orientations
T21 chain: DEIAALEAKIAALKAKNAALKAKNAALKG

4H2620-AA = molecular target: T22, 4H2620-AA; conditions: mean of both orientations
T22 chain: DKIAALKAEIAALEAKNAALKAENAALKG

4H2553-AA = molecular target: T23, 4H2553-AA; conditions: mean of both orientations
T23 chain: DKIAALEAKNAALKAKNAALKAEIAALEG

4H1629-AA = molecular target: T24, 4H1629-AA; conditions: mean of both orientations
T24 chain: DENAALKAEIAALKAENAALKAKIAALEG

4H3606-AA = molecular target: T25, 4H3606-AA; conditions: mean of both orientations
T25 chain: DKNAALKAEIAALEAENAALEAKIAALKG

4H1845-AA = molecular target: T26, 4H1845-AA; conditions: mean of both orientations
T26 chain: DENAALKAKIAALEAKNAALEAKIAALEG

B1: 4H1594-AA (peptide)
chain: DENAALKAEIAALEAKNAALKAEIAALKG
- interaction score (4H32-AA): -1.19
- interaction score (4H2907-AA): -1.36
- interaction score (4H1874-AA): 2.24
- interaction score (4H3413-AA): 1.73
- interaction score (4H340-AA): 0.908
- interaction score (4H2648-AA): -0.627
- interaction score (4H3162-AA): 0.0257
- interaction score (4H3865-AA): 1.15
- interaction score (4H3378-AA): -0.189
- interaction score (4H3588-AA): -1.26
- interaction score (4H3631-AA): -1.31
- interaction score (4H982-AA): 1.3
- interaction score (4H2611-AA): -1.7
- interaction score (4H3133-AA): -2.2
- interaction score (4H3718-AA): -1.13
- interaction score (4H1594-AA): 1.19
- interaction score (4H3697-AA): 0.415
- interaction score (4H2198-AA): -1.61
- interaction score (4H3056-AA): -2.01
- interaction score (4H697-AA): -2.03
- interaction score (4H384-AA): -1.64
- interaction score (4H2620-AA): -1.5
- interaction score (4H2553-AA): -1.6
- interaction score (4H1629-AA): -0.822
- interaction score (4H3606-AA): 1.96
- interaction score (4H1845-AA): -0.968
